A short description of data set [1]: PPO enzyme assay, apparent Km for substrate. The settings on record: substrate protoporphyrinogen. It counts as biochemical.
Data set [2] relates to hemG knockout E. coli strain. It counts as cell-based. The note with it: acifluorfen, flumioxazin, lactofen, or fomesafen; saturating amount.

B1: E. coli HemG: E. coli PPO enzyme HemG (protoporphyrinogen IX dehydrogenase; GenBank Accession No. WP_021498199), SEQ ID NO:76 (protein, listed as Escherichia coli)
chain: MKTLILFSTRDGQTREIASYLASELKELGIQADVANVHRIEEPQWENYDRVVIGASIRYGHYHSAFQEFVKKHATRLNSMPSAFYSVNLVARKPEKRTPQTNSYARKFLMNSQWRPDRCAVIAGALRYPRYRWYDRFMIKLIMKMSGGETDTRKEVVYTDWEQVANFAREIAHLTDKPTLK
As a reminder, the Km is the concentration of substrate that gives half-maximal velocity. Consider B1, for which the Km in data set [1] is 1.6 µM. In data set [2], the “growth rate of hemG knockout E. coli strain in presence of PPO herbicide” value was “normal growth rates”.
